Laboratory results as given in IntAct's records for PubMed 22879593.

Biological target: USH1C, Q9Y6N9-1
Sequence (Q9Y6N9 whole entry): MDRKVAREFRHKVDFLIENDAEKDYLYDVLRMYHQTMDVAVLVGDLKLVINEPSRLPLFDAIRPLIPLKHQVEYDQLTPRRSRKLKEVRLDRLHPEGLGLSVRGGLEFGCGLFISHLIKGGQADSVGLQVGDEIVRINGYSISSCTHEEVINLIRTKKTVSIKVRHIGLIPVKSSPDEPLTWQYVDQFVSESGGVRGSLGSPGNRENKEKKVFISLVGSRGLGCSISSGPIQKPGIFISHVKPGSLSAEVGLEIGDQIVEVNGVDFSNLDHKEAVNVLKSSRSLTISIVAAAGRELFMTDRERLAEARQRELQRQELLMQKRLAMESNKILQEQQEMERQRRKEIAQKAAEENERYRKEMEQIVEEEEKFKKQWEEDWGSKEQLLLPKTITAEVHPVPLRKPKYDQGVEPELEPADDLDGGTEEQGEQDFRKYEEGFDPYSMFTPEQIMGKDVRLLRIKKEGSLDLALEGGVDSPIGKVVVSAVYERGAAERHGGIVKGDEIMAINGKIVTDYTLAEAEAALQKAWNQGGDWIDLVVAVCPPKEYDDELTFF

Row | Substance | effect of a mutation on the interaction
1 | Cadherin-23 (Homo sapiens), Q9H251 L3215Q | decreasing interaction strength
2 | Cadherin-23 (Homo sapiens), Q9H251 L3219Q | decreasing interaction strength
3 | Cadherin-23 (Homo sapiens), Q9H251 L3223Q | with no effect
4 | Cadherin-23 (Homo sapiens), Q9H251 L3225Q | with no effect
5 | Cadherin-23 (Homo sapiens), Q9H251 L3228Q | with no effect
6 | Cadherin-23 (Homo sapiens), Q9H251 Y3222E | decreasing interaction strength

Biological target: USH1C, Q9Y6N9-1
Remark: another data set of the same source

Row | Substance | effect of a mutation on the interaction
7 | Cadherin-23 (Homo sapiens), Q9H251 L3188Q;L3215Q | disrupting interaction strength
